Assays:
Experiment in all cases: cell-based or functional assay
Mouse IL-6 = biological target: T1, Mouse IL-6 (mouse, UniProt P08505 25-211, limits assumed)
T1 sequence (looked up): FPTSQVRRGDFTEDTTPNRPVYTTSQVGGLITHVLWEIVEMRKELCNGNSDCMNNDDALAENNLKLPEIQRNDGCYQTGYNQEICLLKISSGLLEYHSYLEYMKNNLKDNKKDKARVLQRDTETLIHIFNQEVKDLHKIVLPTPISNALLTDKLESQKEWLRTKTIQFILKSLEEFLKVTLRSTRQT

Cynomolgus monkey IL-6 = biological target: T2, Cynomolgus monkey IL-6 (cynomolgus monkey, UniProt P79341 28-212, limits assumed)
T2 sequence (looked up): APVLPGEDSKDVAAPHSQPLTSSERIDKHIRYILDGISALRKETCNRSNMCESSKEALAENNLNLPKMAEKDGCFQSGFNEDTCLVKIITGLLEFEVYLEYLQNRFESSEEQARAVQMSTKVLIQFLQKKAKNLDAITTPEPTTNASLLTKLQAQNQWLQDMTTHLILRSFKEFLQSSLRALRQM

Human IL-6 = Human IL-6 (human, UniProt P05231 30-212)
Rat IL-6 = biological target: T3, Rat IL-6 (rat, UniProt P20607 25-211, limits assumed)
T3 sequence (looked up): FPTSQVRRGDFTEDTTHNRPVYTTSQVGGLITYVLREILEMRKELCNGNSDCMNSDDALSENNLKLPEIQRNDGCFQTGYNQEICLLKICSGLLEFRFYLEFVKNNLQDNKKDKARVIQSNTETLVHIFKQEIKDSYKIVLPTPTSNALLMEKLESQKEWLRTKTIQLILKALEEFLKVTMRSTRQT

B1: Ab1 (antibody, human IgG1, kappa, N297A, V domains shown)
VH: EVQLVESGGGLVQPGGSLRLSCAASGFSLSNYYVTWVRQAPGKGLEWVGIIYGSDETAYATSAIGRFTISRDNSKNTLYLQMNSLRAEDTAVYYCARDDSSDWDAKFNLWGQGTLVTVSS
VL: AIQMTQSPSSLSASVGDRVTITCQASQSINNELSWYQQKPGKAPKLLIYRASTLASGVPSRFSGSGSGTDFTLTISSLQPDDFATYYCQQGYSLRNIDNAFGGGTKVEIKR
**Q.** How did the “IC50 (pM), T1165 cell proliferation assay” value (shortened to “IC50 (pM)”) (Mouse IL-6) turn out when B1 was run?
**A.** 1840 pM

**Q.** What about the “IC50 (pM)” value (Cynomolgus monkey IL-6) of the same binder?
**A.** 12 pM

**Q.** And the “IC50 (pM)” value (Human IL-6)?
**A.** 13 pM

**Q.** What about the “IC50 (pM)” value (Rat IL-6) of the same binder?
**A.** 2060 pM

Source: patent US20120121594A1 (published 2012)
